Experimental findings from US20210253724A1 (Hoffmann-La Roche, published 2021) are described below.

In test [1] the target is T1, human CEACAM5 (CEA) on cells (human, UniProt P06731 35-685).
T1 construct: Endogenous on MKN45 cells; full-length cDNA transfected into CHO-K1 cells; also called CEA expressed on MKN45 cells; CHO-k1-huCEACAM5 clone 11, clone 12, clone 13
T1 sequence: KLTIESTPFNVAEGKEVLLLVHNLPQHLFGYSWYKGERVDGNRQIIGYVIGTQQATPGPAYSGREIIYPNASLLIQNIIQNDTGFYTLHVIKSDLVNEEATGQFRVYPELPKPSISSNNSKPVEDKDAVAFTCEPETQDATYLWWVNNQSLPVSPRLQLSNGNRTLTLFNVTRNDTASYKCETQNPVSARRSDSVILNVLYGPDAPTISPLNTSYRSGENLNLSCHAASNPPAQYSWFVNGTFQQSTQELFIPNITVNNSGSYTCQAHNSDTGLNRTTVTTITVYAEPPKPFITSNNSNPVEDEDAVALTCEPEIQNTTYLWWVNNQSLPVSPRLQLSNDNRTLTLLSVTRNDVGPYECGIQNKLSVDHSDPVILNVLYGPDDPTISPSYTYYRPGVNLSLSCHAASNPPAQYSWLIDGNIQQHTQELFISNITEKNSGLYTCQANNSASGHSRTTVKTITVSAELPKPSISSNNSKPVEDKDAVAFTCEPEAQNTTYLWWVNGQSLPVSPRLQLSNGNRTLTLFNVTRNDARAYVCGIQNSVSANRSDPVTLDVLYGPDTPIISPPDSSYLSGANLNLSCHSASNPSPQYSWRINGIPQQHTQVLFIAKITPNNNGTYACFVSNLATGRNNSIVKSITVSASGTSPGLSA
As to the kind of experiment: flow cytometry on CHO-k1-humanCEACAM5 clone 11.
Description: (§1) Cells were incubated for 30 min at 4° C. and then washed twice with 80 μL/well DPBS. […] Cells were washed twice with 80 μL/well DPBS and then fixed in 30 μL/well DPBS containing 1% Formaldehyde for at least 15 minutes. The same or the next day cells were resuspended in 50 μL/well FACS-buffer and acquired using MACSQuant Analyzer X (Miltenyi Biotec).

Test [2] concerns the target T2, cynomolgus monkey CEACAM5 on CHO-k1-cynoCEACAM5 clone 8 cells (cynomolgus monkey).
T2 construct: whole, on cells
Nature of the test: flow cytometry on CHO-k1-cynoCEACAM5 clone 8.
Description: as §1

In test [3] the target is T2, cynomolgus monkey CEACAM5 on …. Nature of the test: flow cytometry on CHO-k1-cynoCEACAM5 clone 8. Further details: unit not given beside the values. For orientation: In flow cytometry, cells or beads pass a laser one at a time.
The target of test [4] is T1, human CEACAM5 (CEA) on cells. As to the kind of experiment: flow cytometry on CHO-k1-humanCEACAM5 clone 12.
Description: as §1
For test [5] the target is unchanged. As to the kind of experiment: flow cytometry on CHO-k1-humanCEACAM5 clone 13.
Description: as §1
The target of test [6] is T3, human 4-1BB (CD137) on Jurkat-hu4-1BB-NFκB-luc2 reporter cells (human, UniProt Q07011 24-255). As to the kind of experiment: cell-based or functional assay.
For test [7], the target named is T3, human 4-1BB (CD137) on …. As to the kind of experiment: cell-based or functional assay. Further details: AUC of NFκB-luciferase activation curve, no CEA+ cells / AUC of NFκB-luciferase activation curve, with CHO-k1-cynoCEACAM5 clone 8: unit not given beside the values.
In test [8] the target is T1, human CEACAM5 (CEA) on cells. As to the kind of experiment: flow cytometry on CHO-K1-humanCEACAM5 clone 12 cells, goat F(ab')2 anti-human Fcγ-PE, median fluorescence intensity baseline corrected.
Description: as §1
In test [9] the target is T3, human 4-1BB (CD137) on …. As to the kind of experiment: flow cytometry on Jurkat-hu4-1BB-NFκB-luc2 cells.
Description: Plates were incubated for 30 minutes at 4° C. and washed once with 200 μL 4° C. cold DPBS buffer. […] Cells were washed twice with 200 μL 4° C. DPBS buffer and then resuspended in 50 μL/well DPBS containing 1% Formaldehyde for fixation. The same or the next day cells were resuspended in 100 μL FACS-buffer and acquired using MACSQuant Analyzer X (Miltenyi Biotec).
The target in test [10] is T4, human PD-L1 on MKN45-huPD-L1 cells (human, UniProt Q9NZQ7 19-290).
T4 construct: Full-length cDNA transfected into MKN45 cells; also called humanPD-L1-expressing MKN45 cells
As to the kind of experiment: flow cytometry on MKN45-huPD-L1 cells, goat F(ab')2 anti-human Fcγ-PE, gMFI baseline corrected.
Description: as §1

T4 sequence (Q9NZQ7 19-290 limits assumed): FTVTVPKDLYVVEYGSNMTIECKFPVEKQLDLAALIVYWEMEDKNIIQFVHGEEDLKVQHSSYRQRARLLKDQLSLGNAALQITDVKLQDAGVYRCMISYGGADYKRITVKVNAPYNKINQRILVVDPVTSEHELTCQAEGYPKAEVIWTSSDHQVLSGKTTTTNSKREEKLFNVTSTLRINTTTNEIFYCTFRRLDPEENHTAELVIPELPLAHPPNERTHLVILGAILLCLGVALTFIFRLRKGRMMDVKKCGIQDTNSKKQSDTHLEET

B1: 2+1 H2H 4-1BB (20H4.9)/CEA (A5B7) P329GLALA IgG1 (bispecific antibody)
heavy 1: QVQLQQWGAGLLKPSETLSLTCAVYGGSFSGYYWSWIRQSPEKGLEWIGEINHGGYVTYNPSLESRVTISVDTSKNQFSLKLSSVTAADTAVYYCARDYGPGNYDWYFDLWGRGTLVTVSSASTKGPSVFPLAPSSKSTSGGTAALGCLVEDYFPEPVTVSWNSGALTSGVHTFPAVLQSSGLYSLSSVVTVPSSSLGTQTYICNVNHKPSNTKVDEKVEPKSCDKTHTCPPCPAPEAAGGPSVFLFPPKPKDTLMISRTPEVTCVVVDVSHEDPEVKFNWYVDGVEVHNAKTKPREEQYNSTYRVVSVLTVLHQDWLNGKEYKCKVSNKALGAPIEKTISKAKGQPREPQVCTLPPSRDELTKNQVSLSCAVKGFYPSDIAVEWESNGQPENNYKTTPPVLDSDGSFFLVSKLTVDKSRWQQGNVFSCSVMHEALHNHYTQKSLSLSP
heavy 2: not shown
light 1: not shown
light 2: EVKLVESGGGLVQPGGSLRLSCATSGFTFTDYYMNWVRQPPGKALEWLGFIGNKANGYTTEYSASVKGRFTISRDKSQSILYLQMNTLRAEDSATYYCTRDRGLRFYFDYWGQGTTLTVSSASVAAPSVFIFPPSDEQLKSGTASVVCLLNNFYPREAKVQWKVDNALQSGNSQESVTEQDSKDSTYSLSSTLTLSKADYEKHKVYACEVTHQGLSSPVTKSFNRGEC
notes: also called 2+1 H2H anti-4-1BB (20H4.9)×anti-CEA (A5B7) huIgG1 P329GLALA
Molecule B1 yielded an EC50 in [1] of 11.4 nM. Further, the EC50 in [2] was 48.8 nM. This molecule had an AUC in [3] of 4850. The EC50 in [4] amounted to 13.9 nM. Moreover, in test [5], a half-maximal effect (EC50) was put at 12.9 nM. Besides, in test [6], the “EC50 of NFκB-luciferase activation curve, no CEA+ cells” value was found to be 0.04 nM; the “EC50 of NFκB-luciferase activation curve, with CHO-k1-cynoCEACAM5 clone 8” value came to 0.07 nM; the “EC50 of NFκB-luciferase activation curve, with CHO-k1-humanCEACAM5 clone 11” value was 0.04 nM; the “EC50 of NFκB-luciferase activation curve, with CHO-k1-humanCEACAM5 clone 12” value worked out at 0.03 nM. In addition, in [7], the “AUC of NFκB-luciferase activation curve, no CEA+ cells” value amounted to 1320; the “AUC of NFκB-luciferase activation curve, with CHO-k1-cynoCEACAM5 clone 8” value worked out at 43100; the “AUC of NFκB-luciferase activation curve, with CHO-k1-humanCEACAM5 clone 11” value stood at 65700; the “AUC of NFκB-luciferase activation curve, with CHO-k1-humanCEACAM5 clone 12” value was determined as 58900.

B2: anti-4-1BB (20H4.9) huIgG1 P329GLALA (antibody, V domains shown)
VH: QVQLQQWGAGLLKPSETLSLTCAVYGGSFSGYYWSWIRQSPEKGLEWIGEINHGGYVTYNPSLESRVTISVDTSKNQFSLKLSSVTAADTAVYYCARDYGPGNYDWYFDLWGRGTLVTVSS
VL: EIVLTQSPATLSLSPGERATLSCRASQSVSSYLAWYQQKPGQAPRLLIYDASNRATGIPARFSGSGSGTDFTLTISSLEPEDFAVYYCQQRSNWPPALTFGGGTKVEIK
notes: Standard huIgG1 P329G LALA antibody with two anti-4-1BB Fabs
In test [3], B2 registered an AUC of 136. Moreover, in test [8], the binding result is listed as “no binding (tested: about 300 nM)”. Moreover, in test [6], the “EC50 of NFκB-luciferase activation curve, no CEA+ cells” value was 0.19 nM; the “EC50 of NFκB-luciferase activation curve, with CHO-k1-cynoCEACAM5 clone 8” value came to 0.17 nM; the “EC50 of NFκB-luciferase activation curve, with CHO-k1-humanCEACAM5 clone 11” value came out at 0.18 nM; the “EC50 of NFκB-luciferase activation curve, with CHO-k1-humanCEACAM5 clone 12” value was 0.19 nM. Besides, in test [7], the “AUC of NFκB-luciferase activation curve, no CEA+ cells” value was found to be 5070; the “AUC of NFκB-luciferase activation curve, with CHO-k1-cynoCEACAM5 clone 8” value worked out at 4920; the “AUC of NFκB-luciferase activation curve, with CHO-k1-humanCEACAM5 clone 11” value was found to be 15400; the “AUC of NFκB-luciferase activation curve, with CHO-k1-humanCEACAM5 clone 12” value is 11900. Also, in test [9], the EC50 came to 0.073 nM. Besides, in test [10], the binding result is “no binding (tested: 100 nM)”.

The EC50 is the concentration that produces a half-maximal response.
